From patent US20190345534
Where two headings read alike, the source gives them in different places.

Tests used:
[1] = test system: GzmB peptide substrate AIEFDSGc on PEG-coated iron oxide nanoparticles (GzmB-sensing synthetic biomarker)
[2] = molecular target: T1, GzmB peptide substrate AIEFDSGc on PEG-coated iron oxide nanoparticles (GzmB-sensing synthetic biomarker)
T1 chain: AIEFDSGC

B1: Cls (Sigma) (enzyme, UniProt P09871 16-688, looked up, species assumed)
Complement C1s subcomponent: EPTMYGEILSPNYPQAYPSEVEKSWDIEVPEGYGIHLYFTHLDIELSENCAYDSVQIISGDTEEGRLCGQRSSNNPHSPIVEEFQVPYNKLQVIFKSDFSNEERFTGFAAYYVATDINECTDFVDVPCSHFCNNFIGGYFCSCPPEYFLHDDMKNCGVNCSGDVFTALIGEIASPNYPKPYPENSRCEYQIRLEKGFQVVVTLRREDFDVEAADSAGNCLDSLVFVAGDRQFGPYCGHGFPGPLNIETKSNALDIIFQTDLTGQKKGWKLRYHGDPMPCPKEDTPNSVWEPAKAKYVFRDVVQITCLDGFEVVEGRVGATSFYSTCQSNGKWSNSKLKCQPVDCGIPESIENGKVEDPESTLFGSVIRYTCEEPYYYMENGGGGEYHCAGNGSWVNEVLGPELPKCVPVCGVPREPFEEKQRIIGGSDADIKNFPWQVFFDNPWAGGALINEYWVLTAAHVVEGNREPTMYVGSTSVQTSRLAKSKMLTPEHVFIHPGWKLLEVPEGRTNFDNDIALVRLKDPVKMGPTVSPICLPGTSSDYNLMDGDLGLISGWGRTEKRDRAVRLKAARLPVAPLRKCKEVKVEKPTADAEAYVFTPNMICAGGEKGMDSCKGDSGGAFAVQDPNDKTKFYAAGLVSWGPQCGTYGLYTRVKNYVDWIMKTMQENSTPRED
- fluorescent intensity (in vitro protease cleavage assay) [1]: Increases in fluorescent intensity were observed only in samples containing recombinant GzmB

B2: Clr (Sigma) (enzyme, UniProt P00736 18-705, looked up, species assumed)
Complement C1r subcomponent: SIPIPQKLFGEVTSPLFPKPYPNNFETTTVITVPTGYRVKLVFQQFDLEPSEGCFYDYVKISADKKSLGRFCGQLGSPLGNPPGKKEFMSQGNKMLLTFHTDFSNEENGTIMFYKGFLAYYQAVDLDECASRSKSGEEDPQPQCQHLCHNYVGGYFCSCRPGYELQEDTHSCQAECSSELYTEASGYISSLEYPRSYPPDLRCNYSIRVERGLTLHLKFLEPFDIDDHQQVHCPYDQLQIYANGKNIGEFCGKQRPPDLDTSSNAVDLLFFTDESGDSRGWKLRYTTEIIKCPQPKTLDEFTIIQNLQPQYQFRDYFIATCKQGYQLIEGNQVLHSFTAVCQDDGTWHRAMPRCKIKDCGQPRNLPNGDFRYTTTMGVNTYKARIQYYCHEPYYKMQTRAGSRESEQGVYTCTAQGIWKNEQKGEKIPRCLPVCGKPVNPVEQRQRIIGGQKAKMGNFPWQVFTNIHGRGGGALLGDRWILTAAHTLYPKEHEAQSNASLDVFLGHTNVEELMKLGNHPIRRVSVHPDYRQDESYNFEGDIALLELENSVTLGPNLLPICLPDNDTFYDLGLMGYVSGFGVMEEKIAHDLRFVRLPVANPQACENWLRGKNRMDVFSQNMFCAGHPSLKQDACQGDSGGVFAVRDPNTDRWVATGIVSWGIGCSRGYGFYTKVLNYVDWIKKEMEEED
- fluorescent intensity (in vitro protease cleavage assay) [1]: Increases in fluorescent intensity were observed only in samples containing recombinant GzmB

B3: murine Granzyme B (recombinant, Peprotech) (protein)
chain: IIGGHEVKPHSRPYMALLSIKDQQPEAICGFLIREDFVLTAAHCEGSIINVTLGAHNIKEQEKTQQVIPMVKCIPHPDYNPKTFSNDIMLLKLKSKAKRTRAVRPLNLPRRNVNVKPGDVCYVAGWGRMAPMGKYSNTLQEVELTVQKDRECESYFKNRYNKTNQICAGDPKTKRASFRGDSGGPLVCKKVAAGIVSYGYKDGSPPRAFTKVSSFLSWIKKTMKSS
- fluorescent intensity (in vitro protease cleavage assay) [2]: Increases in fluorescent intensity were observed only in samples containing recombinant GzmB
- kcat/KM [2]: Fitted kcat/KM was 1.09×10^4 M^-1s^-1
- rate of cleavage (initial cleavage velocity, fluorescence) [2]: the substrate that produced the highest rate of cleavage by recombinant GzmB

B4: mouse plasmin (HaemTech) (protein)
chain: VYLSECKTGIGNGYRGTMSRTKSGVACQKWGATFPHVPNYSPSTHPNEGLEENYCRNPDNDEQGPWCYTTDPDKRYDYCNIPECEEECMYCSGEKYEGKISKTMSGLDCQAWDSQSPHAHGYIPAKFPSKNLKMNYCRNPDGEPRPWCFTTDPTKRWEYCDIPRCTTPPPPPSPTYQCLKGRGENYRGTVSVTVSGKTCQRWSEQTPHRHNRTPENFPCKNLEENYCRNPDGETAPWCYTTDSQLRWEYCEIPSCESSASPDQSDSSVPPEEQTPVVQECYQSDGQSYRGTSSTTITGKKCQSWAAMFPHRHSKTPENFPDAGLEMNYCRNPDGDKGPWCYTTDPSVRWEYCNLKRCSETGGSVVELPTVSQEPSGPSDSETDCMYGNGKDYRGKTAVTAAGTPCQGWAAQEPHRHSIFTPQTNPRAGLEKNYCRNPDGDVNGPWCYTTNPRKLYDYCDIPLCASASSFECGKPQVEPKKCPGRVVGGCVANPHSWPWQISLRTRFTGQHFCGGTLIAPEWVLTAAHCLEKSSRPEFYKVILGAHEEYIRGLDVQEISVAKLILEPNNRDIALLKLSRPATITDKVIPACLPSPNYMVADRTICYITGWGETQGTFGAGRLKEAQLPVIENKVCNRVEYLNNRVKSTELCAGQLAGGVDSCQGDSGGPLVCFEKDKYILQGVTSWGLGCARPNKPGVYVRVSRFVDWIEREMRNN
- fluorescent intensity (in vitro protease cleavage assay) [2]: Increases in fluorescent intensity were observed only in samples containing recombinant GzmB
